Measured values published in PMC5357957 (2017).

B1: HA-tagged HACE1 wild-type [human] / myc-Rac1 Q61L [not stated] (parent complex)
chain 1: MERAMEQLNRLTRSLRRARTVELPEDNETAVYTLMPMVMADQHRSVSELLSNSKFDVNYAFGRVKRSLLHIAANCGSVECLVLLLKKGANPNYQDISGCTPLHLAARNGQKKCMSKLLEYSADVNICNNEGLTAIHWLAVNGRTELLHDLVQHVSDVDVEDAMGQTALHVACQNGHKTTVQCLLDSGADINRPNVSGATPLYFACSHGQRDTAQILLLRGAKYLPDKNGVTPLDLCVQGGYGETCEVLIQYHPRLFQTIIQMTQNEDLRENMLRQVLEHLSQQSESQYLKILTSLAEVATTNGHKLLSLSSNYDAQMKSLLRIVRMFCHVFRIGPSSPSNGIDMGYNGNKTPRSQVFKPLELLWHSLDEWLVLIATELMKNKRDSTEITSILLKQKGQDQDAASIPPFEPPGPGSYENLSTGTRESKPDALAGRQEASADCQDVISMTANRLSAVIQAFYMCCSCQMPPGMTSPRFIEFVCKHDEVLKCFVNRNPKIIFDHFHFLLECPELMSRFMHIIKAQPFKDRCEWFYEHLHSGQPDSDMVHRPVNENDILLVHRDSIFRSSCEVVSKANCAKLKQGIAVRFHGEEGMGQGVVREWFDILSNEIVNPDYALFTQSADGTTFQPNSNSYVNPDHLNYFRFAGQILGLALNHRQLVNIYFTRSFYKHILGIPVNYQDVASIDPEYAKNLQWILDNDISDLGLELTFSVETDVFGAMEEVPLKPGGGSILVTQNNKAEYVQLVTELRMTRAIQPQINAFLQGFHMFIPPSLIQLFDEYELELLLSGMPEIDVSDWIKNTEYTSGYEREDPVIQWFWEVVEDITQEERVLLLQFVTGSSRVPHGGFANIMGGSGLQNFTIAAVPYTPNLLPTSSTCINMLKLPEYPSKEILKDRLLVALHCGSYGYTMA
chain 2: not shown

Variants of: B1
Assay: co-immunoprecipitation (anti-myc IP), quantified; cells co-transfected with myc-Rac1 Q61L and HA-tagged HACE1 mutants; n ≥ 4 biological replicates; parent: 1; read off a plot

Row | ratio to parent | Variant
1 | ~0.28 | chain 1 Q173A
2 | ~2.3 | chain 1 M114V
3 | ~0.26 | chain 1 N174A
4 | ~3.2 | chain 1 V140A
5 | ~0.55 | chain 1 V140L
6 | ~0.11 | chain 1 A204T
7 | ~0.14 | chain 1 G175C
8 | ~0.18 | chain 1 G175S
